Two substances from article PMC8162069 can be followed below.

This data set concerns O=C[C@H](O)COP(=O)(O)O. The data set is described as follows: purified protein. The class given is biochemical, Homo sapiens. To be noted: without HA.

As a reminder, the Km is the concentration of substrate that gives half-maximal velocity. In general, kcat refers to the maximal rate divided by the concentration of active sites. What is called kcat/Km is the second-order rate constant that governs catalysis at low substrate concentration. Turning to Hs-GAPDH (Homo sapiens), the Km is reported as 0.24 ± 0.02 mM, the kcat is 21.7 ± 1.67 s⁻¹ and the kcat/Km is 90000 M⁻¹ s⁻¹.

With Hs-GAPDH (Homo sapiens; A232S/F233V), the Michaelis-Menten constant (Km) was determined as 0.49 ± 0.21 mM, the kcat came out at 7.67 ± 2 s⁻¹ and the kcat/Km stood at 15700 M⁻¹ s⁻¹.
